The values that follow come from article PMC9907207.

The term stoichiometry N denotes a count of units in the complex or per binding partner.

The target of the assay is D614G VFLIP spike trimer (SARS-CoV-2). Description: cryo-EM structure.

For “D614G VFLIP spike trimer (natural protein)”, the stoichiometry N was 3.
